From the array DNA melting data of Ke et al. come the findings set out here.

In general, Tm refers to the temperature at which the thermal transition is half complete.

The data set is described as follows: melting temperature; melt of duplexes. Particulars: sodium 0.0675 M; strand 1 µM.
For the substance “CGACGTGCTGCATGTGCTG+CAGCACATGGTGCACGTCG ((((((((..(((((((((+)))))))))..))))))))”, the midpoint of thermal melting (Tm) turned out to be 54.2 °C. Consider “CGACGTGCCATATGTGCTG+CAGCACATGCTGCACGTCG ((((((((...((((((((+))))))))...))))))))”, for which the Tm was 46.7 °C. The value for “CGACGTGCAAGATGTGCTG+CAGCACATTTTGCACGTCG ((((((((((.((((((((+)))))))).))))))))))” was 57.3 °C; that for “CGACGTGCTGAATGTGCTG+CAGCACATAGTGCACGTCG ((((((((...((((((((+))))))))...))))))))” was 45.3 °C. “CGACGTGCCATATGTGCTG+CAGCACATGACGCACGTCG ((((((((...((((((((+))))))))...))))))))”: the melting temperature (Tm) was determined as 45.5 °C. The value for “CGACGTGCGGAATGTGCTG+CAGCACATCGGGCACGTCG ((((((((...((((((((+))))))))...))))))))” was 50 °C. The same measure for “CGACGTGCCGTATGTGCTG+CAGCACATCCAGCACGTCG ((((((((.(.((((((((+)))))))).).))))))))”: 49.8 °C; for “CGACGTGCGGAATGTGCTG+CAGCACATCCCGCACGTCG ((((((((((.((((((((+)))))))).))))))))))”: 60.3 °C; for “CGACGTGCGATATGTGCTG+CAGCACATGCGGCACGTCG ((((((((...((((((((+))))))))...))))))))”: 50 °C. The same measure for “CGACGTGCTACATGTGCTG+CAGCACATCGGGCACGTCG ((((((((...((((((((+))))))))...))))))))”: 49.5 °C; for “CGACGTGCCACATGTGCTG+CAGCACATGGTGCACGTCG ((((((((..(((((((((+)))))))))..))))))))”: 53.2 °C; for “CGACGTGCCATATGTGCTG+CAGCACATCAAGCACGTCG ((((((((...((((((((+))))))))...))))))))”: 48.6 °C. Consider “CGACGTGCGTGATGTGCTG+CAGCACATTAAGCACGTCG ((((((((.(.((((((((+)))))))).).))))))))”, for which the Tm turned out to be 54.5 °C. Take “CGACGTGCTTCATGTGCTG+CAGCACATATTGCACGTCG ((((((((...((((((((+))))))))...))))))))”: the Tm turned out to be 49.1 °C. For the substance “CGACGTGCGGCATGTGCTG+CAGCACATGACGCACGTCG (((((((((.(((((((((+))))))))).)))))))))”, the Tm stood at 64 °C. The value for “CGACGTGCAGGATGTGCTG+CAGCACATTAGGCACGTCG ((((((((...((((((((+))))))))...))))))))” was 51.3 °C; that for “CGACGTGCTGTATGTGCTG+CAGCACATCAGGCACGTCG ((((((((...((((((((+))))))))...))))))))” was 51.7 °C; that for “CGACGTGCGGAATGTGCTG+CAGCACATGTTGCACGTCG ((((((((...((((((((+))))))))...))))))))” was 52.8 °C. The value for “CGACGTGCATGATGTGCTG+CAGCACATCTTGCACGTCG (((((((((.(((((((((+))))))))).)))))))))” was 58.3 °C; that for “CGACGTGCTACATGTGCTG+CAGCACATACCGCACGTCG ((((((((...((((((((+))))))))...))))))))” was 47.5 °C. The value for “CGACGTGCGGCATGTGCTG+CAGCACATCAGGCACGTCG ((((((((...((((((((+))))))))...))))))))” was 51 °C; that for “CGACGTGCCGTATGTGCTG+CAGCACATCATGCACGTCG ((((((((...((((((((+))))))))...))))))))” was 48.9 °C. As for “CGACGTGCGGGATGTGCTG+CAGCACATGTCGCACGTCG (((((((((..((((((((+))))))))..)))))))))”, the midpoint of thermal melting (Tm) is 57.8 °C. Regarding “CGACGTGCGCCATGTGCTG+CAGCACATCCTGCACGTCG ((((((((...((((((((+))))))))...))))))))”, the Tm is 47.3 °C.

For “CGACGTGCTGCATGTGCTG+CAGCACATAGAGCACGTCG (((((((((..((((((((+))))))))..)))))))))”, the Tm amounted to 52.3 °C. As to “CGACGTGCCGAATGTGCTG+CAGCACATCTTGCACGTCG ((((((((...((((((((+))))))))...))))))))”, the Tm was 48.8 °C.
